Data reported in PMC4344342.

Target: RpL26-eGFP (UniProt P61254)
Experiment: fluorescence cross-correlation spectroscopy (FCCS); live HeLa cells co-transfected with the two labelled proteins, two-photon excitation at 1020 nm, green and red channels, cytoplasm

NCp7-mCherry (natural protein) was tested, and the percent of NCp7-mCherry molecules that cross-correlate with RpL26-eGFP was 40 to 70%.
